One substance from US20250382602 can be followed below.

Substitutions are numbered along the chain they refer to.

Series [1] has as its target T1, Dda 1993 K177H K177H (Enterobacteria phage T4) (UniProt P32270).
T1 sequence: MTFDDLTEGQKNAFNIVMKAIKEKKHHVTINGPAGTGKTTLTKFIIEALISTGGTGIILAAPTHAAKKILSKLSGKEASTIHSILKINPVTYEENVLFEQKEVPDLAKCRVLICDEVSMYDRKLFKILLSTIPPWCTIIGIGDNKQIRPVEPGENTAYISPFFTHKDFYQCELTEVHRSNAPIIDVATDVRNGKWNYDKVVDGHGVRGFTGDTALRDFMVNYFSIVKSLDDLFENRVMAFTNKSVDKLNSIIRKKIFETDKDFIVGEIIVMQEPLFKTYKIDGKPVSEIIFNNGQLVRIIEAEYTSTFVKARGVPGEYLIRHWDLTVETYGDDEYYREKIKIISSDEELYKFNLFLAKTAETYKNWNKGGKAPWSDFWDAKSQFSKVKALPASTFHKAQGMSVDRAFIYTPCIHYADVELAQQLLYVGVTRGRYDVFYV
The settings on record: nanopore translocation; background mutations not given.

Series [2] concerns the target T2, Dda 1993 N221E N221E (Enterobacteria phage T4) (UniProt P32270).
T2 sequence: T1 sequence with H177K, N221E
The settings on record: nanopore translocation, PromethION; background mutations not given.

Series [3] addresses T3, Dda 1993 T156F T156F (Enterobacteria phage T4) (UniProt P32270).
T3 sequence: T1 sequence with T156F, H177K
The settings on record: nanopore translocation, PromethION; background mutations not given.

In series [4] the target is T4, Dda 1993 T210K T210K (Enterobacteria phage T4) (UniProt P32270).
T4 sequence: T1 sequence with H177K, T210K
The settings on record: nanopore translocation, PromethION; background mutations not given.

Series [5] addresses T5, Dda 1993 T55K T55K (Enterobacteria phage T4) (UniProt P32270).
T5 sequence: T1 sequence with T55K, H177K
The following applies: nanopore translocation, PromethION; background mutations not given.

Series [6] has as its target T6, Dda 1993 Y350E Y350E (Enterobacteria phage T4) (UniProt P32270).
T6 sequence: T1 sequence with H177K, Y350E
The settings on record: nanopore translocation, PromethION; background mutations not given.

For the substance “barcoded 3.6 kb DNA analyte ligated to sequencing Y adaptor”, the activity (bps speed delta vs control) was 10.6 in series [1]; 4.37 in series [2]; 13.8 in series [3]; 0.52 in series [4]; 8.29 in series [5]; 6.06 in series [6].
